Laboratory results taken from US20170066831A1 (Janssen / Centocor, published 2017).
Substitutions are numbered along the chain they refer to. Numbers in names are those of the source.

T1: human ST2L, full length, on cells (human, UniProt Q01638 19-556)
T1 sequence: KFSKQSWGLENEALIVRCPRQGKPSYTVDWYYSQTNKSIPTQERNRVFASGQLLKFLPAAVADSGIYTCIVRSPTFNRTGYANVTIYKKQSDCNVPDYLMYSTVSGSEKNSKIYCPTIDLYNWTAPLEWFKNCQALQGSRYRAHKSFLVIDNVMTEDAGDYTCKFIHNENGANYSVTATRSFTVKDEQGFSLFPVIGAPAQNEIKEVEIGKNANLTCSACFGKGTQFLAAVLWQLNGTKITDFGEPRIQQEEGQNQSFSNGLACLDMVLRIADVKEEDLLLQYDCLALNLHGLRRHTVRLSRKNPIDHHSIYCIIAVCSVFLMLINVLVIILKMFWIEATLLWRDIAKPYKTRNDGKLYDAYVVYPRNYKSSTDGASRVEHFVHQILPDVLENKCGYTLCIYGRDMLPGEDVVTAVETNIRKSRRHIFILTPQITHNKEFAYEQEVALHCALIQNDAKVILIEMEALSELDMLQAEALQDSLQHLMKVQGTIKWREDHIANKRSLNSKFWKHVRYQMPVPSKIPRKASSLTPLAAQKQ

T2: human ST2L extracellular domain with C-terminal His6 tag (human, UniProt Q01638 19-328)
T2 construct: also called huST2L-ECD; ST2L-ECD
T2 sequence: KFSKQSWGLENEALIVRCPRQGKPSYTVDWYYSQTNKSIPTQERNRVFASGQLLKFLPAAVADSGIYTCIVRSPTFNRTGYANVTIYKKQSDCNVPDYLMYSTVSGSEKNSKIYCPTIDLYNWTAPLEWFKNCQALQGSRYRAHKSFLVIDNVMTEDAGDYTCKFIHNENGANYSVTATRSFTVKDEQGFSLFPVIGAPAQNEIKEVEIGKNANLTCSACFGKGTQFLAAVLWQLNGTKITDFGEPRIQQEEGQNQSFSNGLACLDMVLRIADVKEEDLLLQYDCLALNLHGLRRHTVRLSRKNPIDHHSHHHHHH

T3: cynomolgus (Macaca fascicularis) ST2L extracellular domain with C-terminal His6 tag (Macaca fascicularis (cynomolgus), UniProt Q01638 19-321 (human entry))
T3 construct: also called cyno ST2L-ECD; cynoST2L-ECD
T3 chain: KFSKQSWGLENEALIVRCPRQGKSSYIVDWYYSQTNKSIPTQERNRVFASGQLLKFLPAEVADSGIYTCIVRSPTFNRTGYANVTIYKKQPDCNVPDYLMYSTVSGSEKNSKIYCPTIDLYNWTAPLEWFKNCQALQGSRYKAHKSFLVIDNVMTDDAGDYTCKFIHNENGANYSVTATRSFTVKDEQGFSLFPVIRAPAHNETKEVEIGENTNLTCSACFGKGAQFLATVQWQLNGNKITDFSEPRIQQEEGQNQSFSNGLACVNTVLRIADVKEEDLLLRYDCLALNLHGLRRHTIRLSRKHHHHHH

T4: mouse ST2L extracellular domain (mouse, UniProt P14719 28-326)
T4 construct: also called mouse ST2L-ECD; muST2L-ECD
T4 sequence: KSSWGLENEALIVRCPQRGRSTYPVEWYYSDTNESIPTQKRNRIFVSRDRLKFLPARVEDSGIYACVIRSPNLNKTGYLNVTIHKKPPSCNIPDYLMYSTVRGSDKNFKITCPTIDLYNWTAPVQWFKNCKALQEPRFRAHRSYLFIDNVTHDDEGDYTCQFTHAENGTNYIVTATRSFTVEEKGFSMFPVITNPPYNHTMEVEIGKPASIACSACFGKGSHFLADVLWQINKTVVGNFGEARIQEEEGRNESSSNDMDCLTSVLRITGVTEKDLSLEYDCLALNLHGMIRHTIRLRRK

B1: STLM62 (antibody, human IgG2, V domains shown)
VH: EVQLQQSVAELVRPGASVKLSCTASAFNIKDDYMHWVKQRPEQGLEWIGRIDPAIGNTEYAPKFQDKATMTADTSSNTAYLQLSSLTSEDTAVYYCALGDFYAMDYWGQGTSVTVSS
VL: ETTVTQSPASLSVATGEKVTIRCITNTDIDDVIHWYQQKPGEPPKLLISEGNTLRPGVPSRFSSSGYGTDFVFTIENTLSEDVADYYCLQSDNMLTFGAGTKLELK
notes: Mouse hybridoma C2494 cloned into human IgG2 background (STLM62); also called C2494
B2: C2494 Fab (Fab, V domains shown)
VH: B1 VH
VL: B1 VL
B3: C2494 Fab with D101aA (Chothia) substitution in VH (Fab, V domains shown)
VH: B1 VH with D105A
VL: B1 VL
B4: C2521 (antibody, V domains shown)
VH: QIQLQQSGPELVRPGTSVKISCKASGYTFLTYWMNWVKQRPGQGLEWIGQIFPASGSTYYNEMFKDKATLTVDTSSSTAYMQLSSLTSEDTAVYFCARSENIYYINFQYYFAYWGQGTTLTVSS
VL: ILLTQSPAILSVSPGERVSFSCRASQNIGTRMHWYQQRTNGSPRLLIKYASESISGIPSRFSGSGSGTDFTLTISSVESEDIADYYCQQSNTWPFTFGSGTKLEIK
notes: Mouse hybridoma antibody; also called C2521A
B5: ST2M48 (antibody, V domains shown)
VH: EVQLVQSGAEVKKPGESLKISCKGSGYSFTSYWIGWVRQMPGKGLEWMGIIYPGDSYTRYSPSFQGQVTISADKSISTAYLQWSSLKASDTAMYYCARLSGRFDYWGQGTLVTVSS
VL: EIVLTQSPATLSLSPGERATLSCRASQSVRDALAWYQQKPGQAPRLLIYFASNRATGIPARFSGSGSGTDFTLTISSLEPEDFAVYYCQQFNTWPITFGQGTKVEIK
notes: Phage-derived Fab converted to IgG
B6: ST2M49 (antibody, V domains shown)
VH: B5 VH with L99I, S100G, R102M
VL: B5 VL with R30A, D31N, F50K, F91Y, N92Y, T93G
notes: as for B5
B7: STLM189 (antibody, V domains shown)
VH: QVQLVQSGAEVKKPGASVKVSCKVSAFNIKDDYMHWVRQAPGKGLEWMGRIDPAIGNTEYAPKFQDRVTMTEDTSTDTAYMELSSLRSEDTAVYYCATGDFYAMDYWGQGTLVTVSS
VL: EIVMTQSPATLSVSPGERATLSCITNTDIDDVIHWYQQKPGQAPRLLIYEGNTLRPGIPARFSGSGSGTEFTLTISSLQSEDFAVYYCLQSDNMLTFGQGTKLEIK
notes: C2494 HFA mAb: VH STLH195 + VL STLL278 (L2)
B8: ST2M51 (antibody, V domains shown)
VH: QVQLVQSGAEVKKPGSSVKVSCKASGGTFSSYAISWVRQAPGQGLEWMGGIIPIFGTANYAQKFQGRVTITADESTSTAYMELSSLRSEDTAVYYCARDTPQLDYWGQGTLVTVSS
VL: not shown
notes: as for B5
B9: STLM15 (antibody, human IgG2, V domains shown)
VH: EVQLQESGPGLVKPSQSLSLTCTVTGFSITSDYAWNWIRQFPGSKLEWMGFISYSGDTSFNPSLKSRISVTRDTSKNQFFLQLNSVTTEDTATYYCASYDGYSFDYWGQGTTLTVSS
VL: DIVLTQSPASLAISLGQRATISCRASKSVSTSGSSYMFWYQQKPGQPPKLLIYLASNLESGVPARFSGSGSGTDFTLNIHPVEEEDAAAYYCQHSREIPYTFGGGTKLEIK
notes: Mouse hybridoma C2244 cloned into human IgG2 background (STLM15); also called C2244

Tests used:
[1] = target: T1, human ST2L, full length, on cells; experiment: cell-based or functional assay
[2] = target: T2, human ST2L extracellular domain with …; experiment: SPR, mAb captured, ST2L-ECD in solution
[3] = target: T3, cynomolgus (Macaca fascicularis) ST2L …; experiment: SPR, mAb captured, ST2L-ECD in solution
[4] = target: T2, human ST2L extracellular domain with …; experiment: ProteOn SPR, mAb captured, ST2L-ECD in solution
Method: (§1) The affinities were analyzed by ProteOn. The experiments were performed at 25° C. using ProteOn's PBS-T-E buffer (PBS, 0.005% P20 and 3 mM EDTA) as running buffer. […] Mab capture was followed by injection of ST2L-ECD from 0.024-15 nM (5-fold dilutions) for 4 min (200 μL at 50 μL/min). The dissociation was monitored for 30 minutes for all reaction. Regeneration was performed using two 15 sec pulses of 10 mM glycine pH1.5. The data was fitted to a 1:1 with baseline drift model.
(§2) Association rates for the samples are fast, the langmuir with mass transfer model was used for curve fitting and estimation of Affinity. All of the samples had faster off rates than the parental clone and control Mab. The difference in off rate was the primary contributor to the lower affinity of the HFA variants when compared to the parent antibody.

[5] = target: T3, cynomolgus (Macaca fascicularis) ST2L …; experiment: ProteOn SPR, mAb captured, ST2L-ECD in solution
Method: as §1, §2

[6] = target: T2, human ST2L extracellular domain with …; experiment: RLB ELISA: biotinylated IL-33 on coated huST2L-ECD, antibody titrated; tested as a hybridoma
[7] = target: T2, human ST2L extracellular domain with …; experiment: MSD competition on coated ST2L-ECD; 30 nM sulfo-tag labeled C2244 Fab displaced by unlabeled competitor
Method: Competition binding assays were performed to evaluate different binding epitope groups for anti-ST2L mAbs. 5 μl (10 μg/ml) of ST2L-ECD protein was coated on MSD HighBind plate (Meso Scale Discovery, Gaithersburg, Md.) per well for 2 hr at room temperature. One-hundred and fifty microliters of 5% MSD Blocker A buffer (Meso Scale Discovery, Gaithersburg, Md.) was added to each well and incubated for 2 hr at room temperature. Plates were washed three times with 0.1 M HEPES buffer, pH 7.4, followed by the addition of the mixture of the MSD fluorescence dye (sulfo tag, NHS ester) labeled individual anti-ST2L antibody with different competitors. Labeled antibody, 10 or 30 nM, was incubated with increasing concentrations of competitor antibodies, from 1 nM to 2 or 5 μM, and then added to the designated wells in a volume of 25 μL mixture. After 2-hour incubation with gentle shaking at room temperature, plates were washed 3 times with 0.1M HEPES buffer (pH 7.4). MSD Read Buffer T was diluted with distilled water (4-fold) and dispensed at a volume of 150 μL/well and analyzed with a SECTOR Imager 6000.

[8] = target: T2, human ST2L extracellular domain with …; experiment: Fab binding to ST2L, method not detailed; parent C2494 Fab, without the D101aA substitution
[9] = target: T2, human ST2L extracellular domain with …; experiment: Fab binding to ST2L, method not detailed
[10] = target: T4, mouse ST2L extracellular domain; experiment: domain binding assay
Method: Antibody binding to ST2L domain I, II and III was determined using standard capture ELISA assay using electrochemiluminescent detection format (Meso-Scale Discovery (MSD) technology). 10 μg/mL of each antibody was coated onto each well of an MSD HighBind plate (5 μL/well) for 2 hr at room temperature. […] The plate was covered with aluminum foil and incubated for 1 hr at room temperature with gentle shaking. The plate was then washed 3 times with HEPES wash buffer. MSD read buffer (150 μl) was added to each well, and the plate was then read using an MSD Sector Imager 6000.

[11] = target: T2, human ST2L extracellular domain with …; experiment: assayed for binding to human ST2L, method not detailed

Binder | Kd [2] | koff [2] | kon [2] | Kd [3] | koff [3] | kon [3] | binding result [10] | other results
B1 | 0.028 nM | 0.000119 s⁻¹ | 4.26e+06 M⁻¹ s⁻¹ | 0.012 nM | 0.000539 s⁻¹ | 4.51e+07 M⁻¹ s⁻¹ |  | RGA IC50 [1]: 0.11 µg/mL; Kd [4]: 0.00867 nM; koff [4]: 0.000159 s⁻¹; kon [4]: 1.84e+07 M⁻¹ s⁻¹; Kd [5]: 0.0123 nM; koff [5]: 0.000457 s⁻¹; kon [5]: 3.84e+07 M⁻¹ s⁻¹; IC50 [6]: 0.7 µg/mL; IC50 (read off the curve) [7]: ~100 nM
B2 |  |  |  |  |  |  |  | koff [8]: 0.000143 s⁻¹
B3 |  |  |  |  |  |  |  | fold decrease of koff against C2494 [9]: ~4 fold
B4 | 0.079 nM | 4.9e-05 s⁻¹ | 618000 M⁻¹ s⁻¹ | 3.71 nM | 0.00166 s⁻¹ | 447000 M⁻¹ s⁻¹ |  | 
B5 | 0.056 nM | 7.33e-05 s⁻¹ | 1.32e+06 M⁻¹ s⁻¹ | 0.257 nM | 0.00265 s⁻¹ | 1.03e+07 M⁻¹ s⁻¹ | binds | 
B6 | 0.101 nM | 0.000161 s⁻¹ | 1.59e+06 M⁻¹ s⁻¹ | 0.266 nM | 0.0124 s⁻¹ | 4.66e+07 M⁻¹ s⁻¹ | binds | 
B7 |  |  |  |  |  |  |  | binding result [11]: binds
B8 | 0.038 nM | 4.87e-05 s⁻¹ | 1.29e+06 M⁻¹ s⁻¹ | 0.076 nM | 0.00336 s⁻¹ | 4.42e+07 M⁻¹ s⁻¹ | binds | 
B9 | 0.042 nM | 4.25e-05 s⁻¹ | 1.02e+06 M⁻¹ s⁻¹ | 0.011 nM | 5.3e-05 s⁻¹ | 4.81e+06 M⁻¹ s⁻¹ |  | IC50 (read off the curve) [7]: ~90 nM
